{"source": "paper PMC6555819", "about": "“Comprehensive study of nuclear receptor DNA binding provides a revised framework for understanding receptor specificity”", "binders": {"B1": {"name": "NRC3_wobSeed133_DR5_C7A_o1 (dsDNA)", "DNA 1": "GCCGTCAAAGGTCAATGCTAGGTCAGTGAAAGCATTGCGATTGACAGCGTAGAATGAAGG", "DNA 2": "CCTTCATTCTACGCTGTCAATCGCAATGCTTTCACTGACCTAGCATTGACCTTTGACGGC"}, "B2": {"name": "NRC3_wobSeed121_DR5_C7A_o1 (dsDNA)", "DNA 1": "GCCAAAATAGGTCACCGGAAGGTCAAAGTCCGCATGGCGATTGACAGCGTAGAATGAAGG", "DNA 2": "CCTTCATTCTACGCTGTCAATCGCCATGCGGACTTTGACCTTCCGGTGACCTATTTTGGC"}, "B3": {"name": "NRC3_wobSeed101_DR4_C13T_o1 (dsDNA)", "DNA 1": "GCCCTTACGGGTTACTCCAGGTTATAGCATCGGAGTGCGATTGACAGCGTAGAATGAAGG", "DNA 2": "CCTTCATTCTACGCTGTCAATCGCACTCCGATGCTATAACCTGGAGTAACCCGTAAGGGC"}, "B4": {"name": "NRC3_wobSeed37_DR1_C7A_o1 (dsDNA)", "DNA 1": "GCCGTCAAAGGTCAAAGGTCAGTGAAGAGATGACGGGCGATTGACAGCGTAGAATGAAGG", "DNA 2": "CCTTCATTCTACGCTGTCAATCGCCCGTCATCTCTTCACTGACCTTTGACCTTTGACGGC"}, "B5": {"name": "NRC3_wobSeed130_DR5_G14A_o1 (dsDNA)", "DNA 1": "GCCTCGAAAGGTCATGCTCAGGTGAGTATACCAAACGCGATTGACAGCGTAGAATGAAGG", "DNA 2": "CCTTCATTCTACGCTGTCAATCGCGTTTGGTATACTCACCTGAGCATGACCTTTCGAGGC"}, "B6": {"name": "NRC3_random_hg19_428_o1 (dsDNA)", "DNA 1": "GCGAGATTGGAAGGCTTCCAGATGCAAGGCTGTGGCGCGATTGACAGCGTAGAATGAAGG", "DNA 2": "CCTTCATTCTACGCTGTCAATCGCGCCACAGCCTTGCATCTGGAAGCCTTCCAATCTCGC"}, "B7": {"name": "NRC3_wobSeed21_DR0_T11G_o1 (dsDNA)", "DNA 1": "GCCGTCAAAGGTCAAGGTAACGTAACAGAAAGCAGCGCGATTGACAGCGTAGAATGAAGG", "DNA 2": "CCTTCATTCTACGCTGTCAATCGCGCTGCTTTCTGTTACGTTACCTTGACCTTTGACGGC"}, "B8": {"name": "NRC3_wobSeed98_DR4_A28C_o1 (dsDNA)", "DNA 1": "GCACTAGTTGGTCAGCTGAGGTCACACCCAATTCGGGCGATTGACAGCGTAGAATGAAGG", "DNA 2": "CCTTCATTCTACGCTGTCAATCGCCCGAATTGGGTGTGACCTCAGCTGACCAACTAGTGC"}, "B9": {"name": "NRC3_wobSeed25_DR1_C7A_o1 (dsDNA)", "DNA 1": "GCCAAAATAGGTCAAAGGTCAAAGTCGAGCCAACCAGCGATTGACAGCGTAGAATGAAGG", "DNA 2": "CCTTCATTCTACGCTGTCAATCGCTGGTTGGCTCGACTTTGACCTTTGACCTATTTTGGC"}}, "data": [{"target": "LXRb:RXRa (Homo sapiens, UniProt P55055;P19793 full;full)", "sequence (P55055 whole entry, chain 1 of 2)": "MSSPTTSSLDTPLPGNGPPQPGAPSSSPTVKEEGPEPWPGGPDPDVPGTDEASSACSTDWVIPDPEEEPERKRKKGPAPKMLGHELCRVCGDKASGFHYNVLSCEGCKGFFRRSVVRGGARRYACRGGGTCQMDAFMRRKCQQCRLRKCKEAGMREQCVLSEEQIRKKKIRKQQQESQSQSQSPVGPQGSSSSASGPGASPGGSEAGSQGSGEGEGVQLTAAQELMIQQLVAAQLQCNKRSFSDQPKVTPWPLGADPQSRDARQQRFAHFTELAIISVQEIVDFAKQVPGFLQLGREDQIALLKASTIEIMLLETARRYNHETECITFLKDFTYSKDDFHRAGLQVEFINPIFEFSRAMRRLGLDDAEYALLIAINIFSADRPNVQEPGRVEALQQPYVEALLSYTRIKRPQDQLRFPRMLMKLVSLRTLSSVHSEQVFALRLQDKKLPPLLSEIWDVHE", "sequence (P19793 whole entry, chain 2 of 2)": "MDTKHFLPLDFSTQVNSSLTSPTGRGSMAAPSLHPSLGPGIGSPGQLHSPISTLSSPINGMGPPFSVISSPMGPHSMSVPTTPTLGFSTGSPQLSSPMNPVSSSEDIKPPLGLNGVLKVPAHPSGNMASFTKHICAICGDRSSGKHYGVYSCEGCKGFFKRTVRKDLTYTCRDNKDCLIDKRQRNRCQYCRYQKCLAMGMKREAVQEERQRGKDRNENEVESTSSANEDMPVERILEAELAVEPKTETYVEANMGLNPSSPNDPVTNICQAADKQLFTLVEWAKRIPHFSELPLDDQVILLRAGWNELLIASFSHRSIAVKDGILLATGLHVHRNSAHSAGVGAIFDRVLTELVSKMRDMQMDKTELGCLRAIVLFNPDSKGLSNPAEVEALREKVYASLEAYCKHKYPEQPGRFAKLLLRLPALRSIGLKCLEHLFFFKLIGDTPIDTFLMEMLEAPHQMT", "assay": "no ligand; PBM; 270 nM : 90 nM RXRa; PBS pH 7.4, 2% milk, 0.02% Triton X-100, 1 mM DTT, BSA, 0.4 mg/ml salmon testes DNA", "details": "tags: His kept;His cleaved; copies: 1;1; label: surface-attached array probe", "summary_of_the_method": "(§1)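 Binding buffer was PBS pH 7.4 with 2% milk, 0.02% Triton X-100, 1 mM DTT, 0.2 mg/mL BSA and 0.4 mg/ml salmon testes DNA. In it, ligand-free nuclear receptor dimers were incubated 1 h on custom Agilent 4×180K protein-binding microarrays carrying double-stranded probes. Antibodies against each partner (one per run) detected binding, and z-scores were calculated against random background probes after regression normalization of scanned fluorescence.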", "values": [{"binder": "B1", "binding signal": "6.22 PBM z-score against 500 random probes"}, {"binder": "B2", "binding signal": "6.15 PBM z-score against 500 random probes"}, {"binder": "B3", "binding signal": "6.25 PBM z-score against 500 random probes"}, {"binder": "B4", "binding signal": "7.7 PBM z-score against 500 random probes"}, {"binder": "B5", "binding signal": "5.85 PBM z-score against 500 random probes"}, {"binder": "B6", "binding signal": "-1.31 PBM z-score against 500 random probes"}, {"binder": "B7", "binding signal": "6.12 PBM z-score against 500 random probes"}, {"binder": "B8", "binding signal": "3.3 PBM z-score against 500 random probes"}, {"binder": "B9", "binding signal": "7.8 PBM z-score against 500 random probes"}]}, {"target": "LXRa:RXRa (Homo sapiens, UniProt Q13133;P19793 full;full)", "sequence (Q13133 whole entry, chain 1 of 2)": "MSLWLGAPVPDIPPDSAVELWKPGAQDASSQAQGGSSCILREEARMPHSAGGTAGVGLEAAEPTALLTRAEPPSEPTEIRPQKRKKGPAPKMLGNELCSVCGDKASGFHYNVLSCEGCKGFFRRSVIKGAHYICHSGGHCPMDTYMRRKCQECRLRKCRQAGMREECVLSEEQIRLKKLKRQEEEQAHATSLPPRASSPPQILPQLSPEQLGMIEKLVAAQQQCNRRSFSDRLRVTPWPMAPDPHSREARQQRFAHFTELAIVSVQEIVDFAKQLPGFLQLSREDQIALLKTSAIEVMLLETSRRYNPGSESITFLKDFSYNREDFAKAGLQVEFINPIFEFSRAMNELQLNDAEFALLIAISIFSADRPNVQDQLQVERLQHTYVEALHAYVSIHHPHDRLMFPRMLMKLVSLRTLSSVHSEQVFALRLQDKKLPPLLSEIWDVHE", "sequence (P19793 whole entry, chain 2 of 2)": "as the sequence (P19793 whole entry, chain 2 of 2) above", "assay": "no ligand; PBM; 270 nM : 90 nM RXRa; PBS pH 7.4, 2% milk, 0.02% Triton X-100, 1 mM DTT, BSA, 0.4 mg/ml salmon testes DNA", "details": "tags: His kept;His cleaved; copies: 1;1; label: surface-attached array probe", "summary_of_the_method": "as §1", "values": [{"binder": "B1", "binding signal": "6.75 PBM z-score against 500 random probes"}, {"binder": "B2", "binding signal": "7 PBM z-score against 500 random probes"}, {"binder": "B3", "binding signal": "8.39 PBM z-score against 500 random probes"}, {"binder": "B4", "binding signal": "7.91 PBM z-score against 500 random probes"}, {"binder": "B5", "binding signal": "7.19 PBM z-score against 500 random probes"}, {"binder": "B6", "binding signal": "-1.14 PBM z-score against 500 random probes"}, {"binder": "B7", "binding signal": "6.81 PBM z-score against 500 random probes"}, {"binder": "B8", "binding signal": "3.12 PBM z-score against 500 random probes"}, {"binder": "B9", "binding signal": "7.77 PBM z-score against 500 random probes"}]}, {"target": "FXR:RXRa (Homo sapiens, UniProt Q96RI1;P19793 full;full)", "sequence (Q96RI1 whole entry, chain 1 of 2)": "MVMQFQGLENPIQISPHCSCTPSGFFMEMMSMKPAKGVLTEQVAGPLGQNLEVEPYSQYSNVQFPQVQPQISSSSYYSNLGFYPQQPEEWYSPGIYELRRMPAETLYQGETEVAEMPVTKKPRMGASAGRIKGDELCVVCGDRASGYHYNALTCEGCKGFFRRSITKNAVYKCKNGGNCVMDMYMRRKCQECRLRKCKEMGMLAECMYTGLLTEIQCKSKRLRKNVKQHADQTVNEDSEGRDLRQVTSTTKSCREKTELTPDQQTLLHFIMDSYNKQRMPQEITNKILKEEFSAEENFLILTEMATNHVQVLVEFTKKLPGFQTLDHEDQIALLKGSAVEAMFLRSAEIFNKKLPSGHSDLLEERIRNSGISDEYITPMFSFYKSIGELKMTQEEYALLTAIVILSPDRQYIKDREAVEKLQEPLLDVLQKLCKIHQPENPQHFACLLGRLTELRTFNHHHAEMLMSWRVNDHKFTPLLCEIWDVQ", "sequence (P19793 whole entry, chain 2 of 2)": "as the sequence (P19793 whole entry, chain 2 of 2) above", "assay": "no ligand; PBM; 270 nM : 90 nM RXRa; PBS pH 7.4, 2% milk, 0.02% Triton X-100, 1 mM DTT, BSA, 0.4 mg/ml salmon testes DNA", "details": "tags: His kept;His cleaved; copies: 1;1; label: surface-attached array probe", "summary_of_the_method": "as §1", "values": [{"binder": "B1", "binding signal": "8.38 PBM z-score against 500 random probes"}, {"binder": "B4", "binding signal": "9.14 PBM z-score against 500 random probes"}, {"binder": "B5", "binding signal": "8.36 PBM z-score against 500 random probes"}, {"binder": "B7", "binding signal": "9.02 PBM z-score against 500 random probes"}, {"binder": "B9", "binding signal": "8.93 PBM z-score against 500 random probes"}]}, {"target": "VDR:RXRa (Homo sapiens, UniProt P11473;P19793 full;full)", "sequence (P11473 whole entry, chain 1 of 2)": "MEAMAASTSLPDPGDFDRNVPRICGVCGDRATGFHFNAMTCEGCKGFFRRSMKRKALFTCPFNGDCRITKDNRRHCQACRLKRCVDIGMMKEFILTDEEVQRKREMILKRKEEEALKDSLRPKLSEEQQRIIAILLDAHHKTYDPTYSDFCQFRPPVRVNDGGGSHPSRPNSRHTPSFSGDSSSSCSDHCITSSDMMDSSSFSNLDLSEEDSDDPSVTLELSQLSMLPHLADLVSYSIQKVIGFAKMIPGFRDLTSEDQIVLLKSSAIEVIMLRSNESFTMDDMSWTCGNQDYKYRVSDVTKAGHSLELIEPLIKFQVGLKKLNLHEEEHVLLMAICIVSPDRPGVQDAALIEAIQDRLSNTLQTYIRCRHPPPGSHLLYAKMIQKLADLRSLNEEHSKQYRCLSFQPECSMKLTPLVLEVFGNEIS", "sequence (P19793 whole entry, chain 2 of 2)": "as the sequence (P19793 whole entry, chain 2 of 2) above", "assay": "no ligand; PBM; 270 nM : 90 nM RXRa; PBS pH 7.4, 2% milk, 0.02% Triton X-100, 1 mM DTT, BSA, 0.4 mg/ml salmon testes DNA", "details": "tags: His kept;His cleaved; copies: 1;1; label: surface-attached array probe", "summary_of_the_method": "as §1", "values": [{"binder": "B2", "binding signal": "6.58 PBM z-score against 500 random probes"}, {"binder": "B4", "binding signal": "7.1 PBM z-score against 500 random probes"}, {"binder": "B6", "binding signal": "-1.12 PBM z-score against 500 random probes"}, {"binder": "B9", "binding signal": "7.13 PBM z-score against 500 random probes"}]}, {"target": "PPARa:RXRa (Homo sapiens, UniProt Q07869;P19793 full;full)", "sequence (Q07869 whole entry, chain 1 of 2)": "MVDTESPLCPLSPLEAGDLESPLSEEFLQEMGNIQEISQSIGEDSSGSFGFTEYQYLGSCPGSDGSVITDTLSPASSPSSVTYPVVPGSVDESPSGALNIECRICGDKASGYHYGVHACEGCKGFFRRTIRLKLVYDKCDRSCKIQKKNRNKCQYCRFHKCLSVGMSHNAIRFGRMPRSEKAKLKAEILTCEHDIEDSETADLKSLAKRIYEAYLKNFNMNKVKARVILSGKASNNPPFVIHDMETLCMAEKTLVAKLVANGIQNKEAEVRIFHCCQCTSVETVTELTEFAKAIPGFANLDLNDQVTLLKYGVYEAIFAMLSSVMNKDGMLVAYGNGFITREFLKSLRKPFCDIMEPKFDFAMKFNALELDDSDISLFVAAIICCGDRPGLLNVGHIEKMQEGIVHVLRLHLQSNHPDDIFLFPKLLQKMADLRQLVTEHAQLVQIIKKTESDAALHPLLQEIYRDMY", "sequence (P19793 whole entry, chain 2 of 2)": "as the sequence (P19793 whole entry, chain 2 of 2) above", "assay": "no ligand; PBM; 270 nM : 90 nM RXRa; PBS pH 7.4, 2% milk, 0.02% Triton X-100, 1 mM DTT, BSA, 0.4 mg/ml salmon testes DNA", "details": "tags: GST kept;His cleaved; copies: 1;1; label: surface-attached array probe", "summary_of_the_method": "as §1", "values": [{"binder": "B1", "binding signal": "6.56 PBM z-score against 500 random probes"}, {"binder": "B4", "binding signal": "7.54 PBM z-score against 500 random probes"}, {"binder": "B5", "binding signal": "6.66 PBM z-score against 500 random probes"}, {"binder": "B7", "binding signal": "6.99 PBM z-score against 500 random probes"}]}, {"target": "RARb:RXRa (Homo sapiens, UniProt P10826;P19793 full;full)", "sequence (P10826 whole entry, chain 1 of 2)": "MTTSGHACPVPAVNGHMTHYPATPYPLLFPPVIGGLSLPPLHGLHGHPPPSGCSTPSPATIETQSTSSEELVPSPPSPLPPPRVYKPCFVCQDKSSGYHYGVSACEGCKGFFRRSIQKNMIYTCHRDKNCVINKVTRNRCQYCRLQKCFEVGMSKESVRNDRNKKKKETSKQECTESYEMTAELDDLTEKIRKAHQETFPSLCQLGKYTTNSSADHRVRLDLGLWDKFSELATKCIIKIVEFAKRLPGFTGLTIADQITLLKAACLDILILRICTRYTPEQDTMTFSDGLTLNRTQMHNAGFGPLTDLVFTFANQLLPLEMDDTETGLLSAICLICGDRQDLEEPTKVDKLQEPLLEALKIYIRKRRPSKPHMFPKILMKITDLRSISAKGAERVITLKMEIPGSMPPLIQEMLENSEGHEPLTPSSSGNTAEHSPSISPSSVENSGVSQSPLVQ", "sequence (P19793 whole entry, chain 2 of 2)": "as the sequence (P19793 whole entry, chain 2 of 2) above", "assay": "no ligand; PBM; 270 nM : 90 nM RXRa; PBS pH 7.4, 2% milk, 0.02% Triton X-100, 1 mM DTT, BSA, 0.4 mg/ml salmon testes DNA", "details": "tags: His kept;His cleaved; copies: 1;1; label: surface-attached array probe", "summary_of_the_method": "as §1", "values": [{"binder": "B1", "binding signal": "6.04 PBM z-score against 500 random probes"}, {"binder": "B2", "binding signal": "5.81 PBM z-score against 500 random probes"}, {"binder": "B4", "binding signal": "6.32 PBM z-score against 500 random probes"}, {"binder": "B5", "binding signal": "5.96 PBM z-score against 500 random probes"}, {"binder": "B7", "binding signal": "6.57 PBM z-score against 500 random probes"}, {"binder": "B9", "binding signal": "6.18 PBM z-score against 500 random probes"}]}, {"target": "RARg:RXRa (Homo sapiens, UniProt P13631;P19793 full;full)", "sequence (P13631 whole entry, chain 1 of 2)": "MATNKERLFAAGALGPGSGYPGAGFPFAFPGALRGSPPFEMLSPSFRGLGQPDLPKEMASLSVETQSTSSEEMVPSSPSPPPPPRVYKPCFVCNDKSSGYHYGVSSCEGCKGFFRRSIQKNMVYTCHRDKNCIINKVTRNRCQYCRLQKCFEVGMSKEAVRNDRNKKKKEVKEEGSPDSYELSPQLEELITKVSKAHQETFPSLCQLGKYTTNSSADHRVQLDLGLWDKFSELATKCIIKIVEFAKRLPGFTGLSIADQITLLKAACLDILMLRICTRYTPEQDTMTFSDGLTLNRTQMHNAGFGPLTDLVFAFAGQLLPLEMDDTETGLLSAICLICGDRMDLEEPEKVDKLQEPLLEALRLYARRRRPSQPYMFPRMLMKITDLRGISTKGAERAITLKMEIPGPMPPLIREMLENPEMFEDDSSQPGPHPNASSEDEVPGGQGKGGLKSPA", "sequence (P19793 whole entry, chain 2 of 2)": "as the sequence (P19793 whole entry, chain 2 of 2) above", "assay": "no ligand; PBM; 270 nM : 90 nM RXRa; PBS pH 7.4, 2% milk, 0.02% Triton X-100, 1 mM DTT, BSA, 0.4 mg/ml salmon testes DNA", "details": "tags: His kept;His cleaved; copies: 1;1; label: surface-attached array probe", "summary_of_the_method": "as §1", "values": [{"binder": "B1", "binding signal": "8.73 PBM z-score against 500 random probes"}, {"binder": "B2", "binding signal": "9.04 PBM z-score against 500 random probes"}, {"binder": "B4", "binding signal": "9.63 PBM z-score against 500 random probes"}, {"binder": "B5", "binding signal": "7.89 PBM z-score against 500 random probes"}, {"binder": "B7", "binding signal": "7.8 PBM z-score against 500 random probes"}, {"binder": "B9", "binding signal": "9.5 PBM z-score against 500 random probes"}]}, {"target": "RXRa (Homo sapiens, UniProt P19793)", "sequence (P19793 whole entry)": "as the sequence (P19793 whole entry, chain 2 of 2) above", "assay": "no ligand; PBM; 180 nM; PBS pH 7.4, 2% milk, 0.02% Triton X-100, 1 mM DTT, BSA, 0.4 mg/ml salmon testes DNA", "details": "tags: His cleaved; chain copies: 2; label: surface-attached array probe", "values": [{"binder": "B1", "binding signal": "8.08 PBM z-score against 500 random probes"}, {"binder": "B2", "binding signal": "7.97 PBM z-score against 500 random probes"}, {"binder": "B4", "binding signal": "11 PBM z-score against 500 random probes"}, {"binder": "B5", "binding signal": "8.8 PBM z-score against 500 random probes"}, {"binder": "B7", "binding signal": "8.42 PBM z-score against 500 random probes"}, {"binder": "B9", "binding signal": "10.9 PBM z-score against 500 random probes"}]}]}
